Among the data in patent US20180155451A1 (published 2018) are He/Con_2b, He/Con_2aH and He/Con_1a values, retold here.

The labels stand for the following.
T1: FcγRIIb (human, UniProt P31994 43-217)
T1 construct: extracellular domain; also called 2b
T1 sequence (looked up): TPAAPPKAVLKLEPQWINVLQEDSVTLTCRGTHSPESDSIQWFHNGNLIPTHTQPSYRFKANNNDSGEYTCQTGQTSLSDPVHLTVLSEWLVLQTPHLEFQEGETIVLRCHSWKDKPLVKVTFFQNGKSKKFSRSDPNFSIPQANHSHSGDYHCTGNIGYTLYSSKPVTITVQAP

T2: FcγRIIa H (human, UniProt P12318 34-217)
T2 construct: extracellular domain; also called FcγRIIa type H; 2aH
T2 sequence (looked up): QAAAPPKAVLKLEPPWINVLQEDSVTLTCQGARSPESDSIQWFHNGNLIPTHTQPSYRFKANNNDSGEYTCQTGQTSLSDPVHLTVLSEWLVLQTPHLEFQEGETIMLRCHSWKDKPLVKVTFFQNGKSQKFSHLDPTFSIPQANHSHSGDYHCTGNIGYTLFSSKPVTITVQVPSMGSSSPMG

T3: FcγRIIb extracellular domain with C-terminal His tag (human, UniProt P31994 43-217)
T3 construct: extracellular domain; soluble receptor expressed in FreeStyle293 cells, used as analyte in Biacore; also called FcgRIIb; 2b; not shown: His tag attached to the C terminus
T3 sequence (looked up): T1 sequence (looked up)

B1: GpH7-A5/GpH7-B3 variant L328_19Q/GpL16-k0 (antibody, human IgG1, kappa)
heavy 1: not shown
heavy 2: not shown
light: DIVMTQSPLSLPVTPGEPASISCQASESLVHSNRNTYLHWYLQKPGQSPQLLIYKVSNRFSGVPDRFSGSGSGTDFTLKISRVEAEDVGVYYCSQNTHVPPTFGQGTKVEIERTVAAPSVFIFPPSDEQLKSGTASVVCLLNNFYPREAKVQWKVDNALQSGNSQESVTEQDSKDSTYSLSSTLTLSKADYEKHKVYACEVTHQGLSSPVTKSFNRGEC
notes: heterodimerized IgG1, mutation in one H chain only; also called He Ab
B2: GpH7-A5/GpH7-B3 variant K334_12R/GpL16-k0 (antibody, human IgG1, kappa)
heavy 1: not shown
heavy 2: not shown
light: B1 light
notes: as for B1
B3: GpH7-A5/GpH7-B3 variant N325_09D/GpL16-k0 (antibody, human IgG1, kappa)
heavy 1: not shown
heavy 2: not shown
light: B1 light
notes: as for B1
B4: GpH7-A5/GpH7-B3 variant A330_05P/GpL16-k0 (antibody, human IgG1, kappa)
heavy 1: not shown
heavy 2: not shown
light: B1 light
notes: as for B1
B5: GpH7-A5/GpH7-B3 variant N325_01G/GpL16-k0 (antibody, human IgG1, kappa)
heavy 1: not shown
heavy 2: not shown
light: B1 light
notes: as for B1
B6: GpH7-A5/GpH7-B3 variant K334_18N/GpL16-k0 (antibody, human IgG1, kappa)
heavy 1: not shown
heavy 2: not shown
light: B1 light
notes: as for B1
B7: GpH7-A5/GpH7-B3 variant S267_11K/GpL16-k0 (antibody, human IgG1, kappa)
heavy 1: not shown
heavy 2: not shown
light: B1 light
notes: as for B1
B8: GpH7-A5/GpH7-B3 variant L328_04F/GpL16-k0 (antibody, human IgG1, kappa)
heavy 1: not shown
heavy 2: not shown
light: B1 light
notes: as for B1
B9: GpH7-A5/GpH7-B3 variant N325_08L/GpL16-k0 (antibody, human IgG1, kappa)
heavy 1: not shown
heavy 2: not shown
light: B1 light
notes: as for B1
B10: GpH7-A5/GpH7-B3 variant L328_09D/GpL16-k0 (antibody, human IgG1, kappa)
heavy 1: not shown
heavy 2: not shown
light: B1 light
notes: as for B1
B11: GpH7-A5/GpH7-B3 variant A330_01G/GpL16-k0 (antibody, human IgG1, kappa)
heavy 1: not shown
heavy 2: not shown
light: B1 light
notes: as for B1
B12: GpH7-A5/GpH7-B3 variant A327_01G/GpL16-k0 (antibody, human IgG1, kappa)
heavy 1: not shown
heavy 2: not shown
light: B1 light
notes: as for B1
B13: GpH7-A5/GpH7-B3 variant S324_12R/GpL16-k0 (antibody, human IgG1, kappa)
heavy 1: not shown
heavy 2: not shown
light: B1 light
notes: heterodimerized anti-glypican-3 IgG1; alteration in the GpH7-B3 chain only; also called He Ab
B14: GpH7-A5/GpH7-B3 variant S324_14T/GpL16-k0 (antibody, human IgG1, kappa)
heavy 1: not shown
heavy 2: not shown
light: B1 light
notes: as for B13
B15: GpH7-A5/GpH7-B3 variant S324_16H/GpL16-k0 (antibody, human IgG1, kappa)
heavy 1: not shown
heavy 2: not shown
light: B1 light
notes: as for B13
B16: GpH7-A5/GpH7-B3 variant S324_19Q/GpL16-k0 (antibody, human IgG1, kappa)
heavy 1: not shown
heavy 2: not shown
light: B1 light
notes: as for B13
B17: GpH7-A5/GpH7-B3 variant S324_15Y/GpL16-k0 (antibody, human IgG1, kappa)
heavy 1: not shown
heavy 2: not shown
light: B1 light
notes: as for B13
B18: GpH7-A5/GpH7-B3 variant S324_20W/GpL16-k0 (antibody, human IgG1, kappa)
heavy 1: not shown
heavy 2: not shown
light: B1 light
notes: as for B13
B19: GpH7-A5/GpH7-B3 variant S324_18N/GpL16-k0 (antibody, human IgG1, kappa)
heavy 1: not shown
heavy 2: not shown
light: B1 light
notes: as for B13

The first experiment has as its target T1, FcγRIIb. Put plainly: SPR (Biacore), relative binding vs GpH7-A5/GpH7-B3/GpL16-k0. Here is the method:
(§1) The heterodimerized antibodies He Abs in which one of the H chains was introduced with an alteration were assayed for their binding activities to each activating FcγR and inhibitory FcγR according to the method described in Example 4. […] The activating FcγRs in FIGS. 26, 27, 28, and 29 are FcγRIa, FcγRIIa (R), FcγRIIa (H), and FcγRIIIa, respectively.
(§2) Analysis of interaction between objective antibody and the FcγR was carried out using Biacore T100 (GE Healthcare). HBS-EP+ (GE Healthcare) was used as the running buffer, and the measurement temperature was set to 25° C. Chips produced by immobilizing the antigen peptide by the amine coupling method to a Series S Sencor Chip CM5 (GE Healthcare), or alternatively, chips produced by allowing preliminarily biotinylated antigen peptides to interact with and immobilize onto a Series S Sensor Chip SA (certified) (GE Healthcare) were used. Antibodies of interest were captured onto an antigen peptide-immobilized chip, and allowed to interact to each FcγR diluted with running buffer. To regenerate and repeatedly use the chip, the antibodies captured on the chip were washed off by reacting 10 mM glycine-HCl, pH 1.5.
For orientation: In SPR one partner is held on a chip, and binding of the other changes the refractive index at the surface.
For B1, the He/Con_2b is 105 % of control He Ab (=100).

As for B2, the He/Con_2b is 111 % of control He Ab (=100).

B3: the He/Con_2b was 124 % of control He Ab (=100).

B4: the He/Con_2b was 137 % of control He Ab (=100).

For B5, the He/Con_2b was 101 % of control He Ab (=100).

For the molecule B6, the He/Con_2b is 115 % of control He Ab (=100).

Turning to B7, the He/Con_2b is 12.2 % of control He Ab (=100).

With B8, the He/Con_2b was 219 % of control He Ab (=100).

For B9, the He/Con_2b is 197 % of control He Ab (=100).

Regarding B10, the He/Con_2b was 199 % of control He Ab (=100).

As for B11, the He/Con_2b was 104 % of control He Ab (=100).

Regarding B12, the He/Con_2b was 116 % of control He Ab (=100).

For another experiment, the target named is T2, FcγRIIa H. The experiment is described as above. The protocol:
as §1, §2
As for B1, the He/Con_2aH is 86.8 % of control He Ab (=100).

As for B2, the He/Con_2aH is 99.7 % of control He Ab (=100).

In the case of B3, the He/Con_2aH is 53.1 % of control He Ab (=100).

With B4, the He/Con_2aH was 85.7 % of control He Ab (=100).

With B5, the He/Con_2aH is 56.8 % of control He Ab (=100).

B6: the He/Con_2aH is 99.7 % of control He Ab (=100).

In the case of B8, the He/Con_2aH is 71.7 % of control He Ab (=100).

Turning to B9, the He/Con_2aH is 52 % of control He Ab (=100).

For B10, the He/Con_2aH was 58.5 % of control He Ab (=100).

For the molecule B11, the He/Con_2aH was 99 % of control He Ab (=100).

As to B12, the He/Con_2aH was 97.2 % of control He Ab (=100).

The target in another experiment is T4, FcγRIa extracellular domain with C-terminal His tag (human, UniProt P12314 16-292).
T4 construct: extracellular domain; soluble receptor expressed in FreeStyle293 cells, used as analyte in Biacore; also called FcgRI; 1a; not shown: His tag attached to the C terminus
T4 sequence (P12314 16-292): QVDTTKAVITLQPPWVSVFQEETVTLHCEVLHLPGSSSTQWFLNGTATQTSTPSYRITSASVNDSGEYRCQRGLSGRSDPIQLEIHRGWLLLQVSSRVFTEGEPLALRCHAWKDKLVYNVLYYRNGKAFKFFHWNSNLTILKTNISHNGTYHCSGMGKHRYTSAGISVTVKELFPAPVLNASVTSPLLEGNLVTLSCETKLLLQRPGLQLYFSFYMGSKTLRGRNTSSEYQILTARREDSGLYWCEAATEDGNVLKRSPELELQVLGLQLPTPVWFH
As to the kind of experiment: SPR (Biacore), antibody captured on antigen peptide chip, FcγR as analyte; relative binding.
For the molecule B13, the He/Con_1a is 102 % of control GpH7-A5/GpH7-B3/GpL16-k0 (=100).

Turning to B14, the He/Con_1a was 121 % of control GpH7-A5/GpH7-B3/GpL16-k0 (=100).

On to B15, for which the He/Con_1a was 113 % of control GpH7-A5/GpH7-B3/GpL16-k0 (=100).

Consider B16, for which the He/Con_1a is 112 % of control GpH7-A5/GpH7-B3/GpL16-k0 (=100).

For B17, the He/Con_1a was 114 % of control GpH7-A5/GpH7-B3/GpL16-k0 (=100).

Turning to B18, the He/Con_1a was 114 % of control GpH7-A5/GpH7-B3/GpL16-k0 (=100).

Take B19: the He/Con_1a is 116 % of control GpH7-A5/GpH7-B3/GpL16-k0 (=100).

In another experiment the target is T3, FcγRIIb extracellular domain with …. The description is as above.
Consider B13, for which the He/Con_2b was 63.1 % of control GpH7-A5/GpH7-B3/GpL16-k0 (=100).

Regarding B14, the He/Con_2b is 88.4 % of control GpH7-A5/GpH7-B3/GpL16-k0 (=100).

Consider B15, for which the He/Con_2b is 83.5 % of control GpH7-A5/GpH7-B3/GpL16-k0 (=100).

For B16, the He/Con_2b is 66.8 % of control GpH7-A5/GpH7-B3/GpL16-k0 (=100).

For the molecule B17, the He/Con_2b was 88.2 % of control GpH7-A5/GpH7-B3/GpL16-k0 (=100).

In the case of B18, the He/Con_2b is 87.5 % of control GpH7-A5/GpH7-B3/GpL16-k0 (=100).

Take B19: the He/Con_2b is 81.1 % of control GpH7-A5/GpH7-B3/GpL16-k0 (=100).
